We go through two substances from article PMC12324117.

The target in this test is LRRC4B (453–576) protein (UniProt Q9NT99). The test can be described thus: ELISA; plates coated with LRRC4B (453–576) protein at 1 µg/ml in 50 mM carbonate buffer pH 9.6; FAM19A5 added; detected with HRP-conjugated C-A5-Ab; OD 450 nm (format as told for the CSF ELISA); n = 10 each.
UniProt Q9NT99, sequence (Q9NT99 453-576): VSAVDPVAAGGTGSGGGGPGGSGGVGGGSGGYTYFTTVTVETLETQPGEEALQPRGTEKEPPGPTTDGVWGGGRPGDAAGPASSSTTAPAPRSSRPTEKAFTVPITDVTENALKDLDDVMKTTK

The EC50 is the concentration needed to bring the measured effect to its halfway point. Take “MT FAM19A5 protein (ELISA) (natural protein)”: the EC50 is 2.56 nM.
To “WT FAM19A5 protein (ELISA) (natural protein)” belongs 0.199 nM.
